The values that follow come from US8679540B2, “Pharmaceutical formulations for the prolonged release of active principle(s), and their applications, especially therapeutic applications” (Flamel Technologies, priority 2006, dated 2014).

Data set [1] can be described thus: Pharmacokinetics of hGH in the dog after subcutaneous injection of nanoparticle and microparticle formulations (Example 12). The following applies: 1 mg/kg hGH. It counts as in vivo, beagle dogs. The method, then: (§1) Twelve naïve beagle dogs (weighing 7 to 10 kg) were treated with the following formulations:
The hGH IR corresponds to a solution of recombinant human growth hormone ([hGH]=4 mg/ml, pH=7.2, 330 mOsm).
Formulation 1 is prepared according to Example 2 and formulation 2 according to Example 7. The hGH is assayed by ELISA (DSL 10-1900 kit).
where: • Cmax is the maximum serum hGH concentration, • T>5 ng/ml is the time when the serum hGH concentration is greater than 5 ng/ml, • AUC represents the area under the curve of serum hGH concentration as a function of time, • RBA represents the bioavailability relative to an Immediate-Release formulation, • T50% auc represents the time required to release 50% of the total hGH released.

Data set [2] is described as follows: Pharmacokinetics of hGH in the dog after subcutaneous injection of a microparticle formulation (Example 13). It counts as in vivo, beagle dogs. The note with it: hGH IR 5 × 0.1 mg/kg per day, Formulation 3 0.5 mg/kg. The method, then: as §1
The hGH IR corresponds to a solution of recombinant human growth hormone ([hGH]=4.1 mg/ml, pH=7.2, 330 mOsm). Formulation 3 is prepared according to Example 9.

Consider “hGH IR: solution of recombinant human growth hormone, immediate-release reference”, for which, in data set [1], the “RBA (bioavailability relative to an Immediate-Release formulation)” value was 100%, the “T50% auc ± SD (time required to release 50% of the total hGH released)” value is 4 ± 1 h, the “T > 5 ng/ml ± SD (time when serum hGH concentration is greater than 5 ng/ml)” value is recorded as 18 ± 3 h and the “apparent T½ (elimination)” value was “about 2 hours”. Further, in data set [1], the “median time to reach maximum serum concentration” value worked out at 2 h and the “time beyond which circulating hGH is no longer quantifiable” value was found to be 24 h. Besides, the “AUC0-last ± SD” value in data set [1] (serum hGH) worked out at 3209 ± 276 ng·h/mL. Besides, the “Cmax ± SD (maximum serum hGH concentration)” value in data set [1] (serum, ELISA, 1 mg/kg) is 582 ± 155 ng/mL. In data set [2], the “AUC0-last ± SD” value turned out to be 258 ± 26 ng·h/mL, the “Cmax ± SD (maximum serum hGH concentration)” value was determined as 90 ± 24 ng/mL, the “RBA (bioavailability relative to an Immediate-Release formulation)” value came to 100% and the “T50% auc ± SD” value worked out at 2 ± 0.3 h. Moreover, the “T > 1 ng/ml ± SD” value in data set [2] is given as 39 h.
